The supplement of paper PMC11246515
± gives the standard deviation of the averaged measurements.

Test: total protein half-life in vivo (active degradation + dilution); higher = more stable protein
[1] = wild type E. coli NCM3722, growth: C-lim chemostat, doubling time 3 h
[2] = wild type E. coli NCM3722, growth: C-lim chemostat, doubling time 6 h
[3] = wild type E. coli NCM3722, growth: C-lim chemostat, doubling time 12 h
[4] = E. coli NCM3722 delta-clpP delta-lon delta-hslV, growth: N-lim chemostat, doubling time 6 h
[5] = wild type E. coli NCM3722, growth: N-lim chemostat, doubling time 12 h
[6] = wild type E. coli NCM3722, growth: P-lim chemostat, doubling time 12 h
[7] = E. coli NCM3722 delta-clpP, growth: N-lim chemostat, doubling time 6 h
[8] = E. coli NCM3722 delta-hslV, growth: N-lim chemostat, doubling time 6 h
[9] = E. coli NCM3722 delta-lon, growth: N-lim chemostat, doubling time 6 h
[10] = E. coli NCM3722 delta-smpB, growth: N-lim chemostat, doubling time 6 h
[11] = wild type E. coli NCM3722, growth: N-lim chemostat, doubling time 6 h
[12] = wild type E. coli NCM3722, growth: P-lim chemostat, doubling time 6 h

Sequence	total protein half-life in vivo [1] [h]	total protein half-life in vivo [2] [h]	total protein half-life in vivo [3] [h]	total protein half-life in vivo [4] [h]	total protein half-life in vivo [5] [h]	total protein half-life in vivo [6] [h]	total protein half-life in vivo [7] [h]	total protein half-life in vivo [8] [h]	total protein half-life in vivo [9] [h]	total protein half-life in vivo [10] [h]	total protein half-life in vivo [11] [h]	total protein half-life in vivo [12] [h]
MLAFLNQVRKPTLDLPLEVRRKMWFKPFMQSYLVVFIGYLTMYLIRKNFNIAQNDMISTYGLSMTQLGMIGLGFSITYGVGKTLVSYYADGKNTKQFLPFMLILSAICMLGFSASMGSGSVSLFLMIAFYALSGFFQSTGGSCSYSTITKWTPRRKRGTFLGFWNISHNLGGAGAAGVALFGANYLFDGHVIGMFIFPSIIALIVGFIGLRYGSDSPESYGLGKAEELFGEEISEEDKETESTDMTKWQIFVEYVLKNKVIWLLCFANIFLYVVRIGIDQWSTVYAFQELKLSKAVAIQGFTLFEAGALVGTLLWGWLSDLANGRRGLVACIALALIIATLGVYQHASNEYIYLASLFALGFLVFGPQLLIGVAAVGFVPKKAIGAADGIKGTFAYLIGDSFAKLGLGMIADGTPVFGLTGWAGTFAALDIAAIGCICLMAIVAVMEERKIRREKKIQQLTVA [P0AGC0]	1.74 ± 0.042	1.96 ± 0.031	3.78 ± 2.4									
MELATTQSVLMQIQPTIQRFARMLASVLQLEVEIVDENLCRVAGTGAYGKFLGRQLSGNSRLLRHVLETKTEKVVTQSRFDPLCEGCDSKENCREKAFLGTPVILQDRCVGVISLIAVTHEQQEHISDNLREFSDYVRHISTIFVSKLLEDQGPGDNISKIFATMIDNMDQGVLVVDDENRVQFVNQTALKTLGVVQNNIIGKPIRFRPLTFESNFTHGHMQHIVSWDDKSELIIGQLHNIQGRQLFLMAFHQSHTSFSVANAPDEPHIEQLVGECRVMRQLKRLISRIAPSPSSVMVVGESGTGKEVVARAIHKLSGRRNKPFIAINCAAIPEQLLESELFGYVKGAFTGASANGKTGLIQAANTGTLFLDEIGDMPLMLQAKLLRAIEAREILPIGASSPIQVDIRIISATNQNLAQFIAEGKFREDLFYRLNVIPITLPPLRERQEDIELLVHYFLHLHTRRLGSVYPGIAPDVVEILRKHRWPGNLRELSNLMEYLVNVVPSGEVIDSTLLPPNLLNNGTTEQSDVTEVSEAHLSLDDAGGTALEEMEKQMIREALSRHNSKKQVADELGIGIATLYRKIKKYELLNT	1.46 ± 0.072	2.41 ± 0.17	2.87 ± 0.29	4.91 ± 0.062	1.52	2.56						
MKLAHLGRQALMGVMAVALVAGMSVKSFADEGLLNKVKERGTLLVGLEGTYPPFSFQGDDGKLTGFEVEFAQQLAKHLGVEASLKPTKWDGMLASLDSKRIDVVINQVTISDERKKKYDFSTPYTISGIQALVKKGNEGTIKTADDLKGKKVGVGLGTNYEEWLRQNVQGVDVRTYDDDPTKYQDLRVGRIDAILVDRLAALDLVKKTNDTLAVTGEAFSRQESGVALRKGNEDLLKAVNDAIAEMQKDGTLQALSEKWFGADVTK [P0AEM9]	3.47 ± 0.28	6.27 ± 0.63	12.5 ± 2.1	6.22 ± 0.52	14.1 ± 1.8	14.49 ± 0.065	5.74 ± 0.64	6.87 ± 0.34	7.33 ± 0.21	6.54 ± 0.16	5.71 ± 0.61	5.95 ± 0.58
MTQFTQNTAMPSSLWQYWRGLSGWNFYFLVKFGLLWAGYLNFHPLLNLVFAAFLLMPLPRYSLHRLRHWIALPIGFALFWHDTWLPGPESIMSQGSQVAGFSTDYLIDLVTRFINWQMIGAIFVLLVAWLFLSQWIRITVFVVAILLWLNVLTLAGPSFSLWPAGQPTTTVTTTGGNAAATVAATGGAPVVGDMPAQTAPPTTANLNAWLNNFYNAEAKRKSTFPSSLPADAQPFELLVINICSLSWSDIEAAGLMSHPLWSHFDIEFKNFNSATSYSGPAAIRLLRASCGQTSHTNLYQPANNDCYLFDNLSKLGFTQHLMMGHNGQFGGFLKEVRENGGMQSELMDQTNLPVILLGFDGSPVYDDTAVLNRWLDVTEKDKNSRSATFYNTLPLHDGNHYPGVSKTADYKARAQKFFDELDAFFTELEKSGRKVMVVVVPEHGGALKGDRMQVSGLRDIPSPSITDVPVGVKFFGMKAPHQGAPIVIEQPSSFLAISDLVVRVLDGKIFTEDNVDWKKLTSGLPQTAPVSENSNAVVIQYQDKPYVRLNGGDWVPYPQ	2.602 ± 0.019	4.28 ± 0.59	8.3 ± 0.53	3.61 ± 0.11	6.43 ± 1.3	6.54 ± 0.083	4.03 ± 0.34	2.98 ± 1.2	3.68 ± 0.32	3.66 ± 0.32	4.05 ± 0.25	3.91 ± 0.42
MQYIKIHALDNVAVALADLAEGTEVSVDNQTVTLRQDVARGHKFALTDIAKGANVIKYGLPIGYALADIAAGVHVHAHNTRTNLSDLDQYRYQPDFQDLPAQAADREVQIYRRANGDVGVRNELWILPTVGCVNGIARQIQNRFLKETNNAEGTDGVFLFSHTYGCSQLGDDHINTRTMLQNMVRHPNAGAVLVIGLGCENNQVAAFRETLGDIDPERVHFMICQQQDDEIEAGIEHLHQLYNVMRNDKREPGKLSELKFGLECGGSDGLSGITANPMLGRFSDYVIANGGTTVLTEVPEMFGAEQLLMDHCRDEATFEKLVTMVNDFKQYFIAHDQPIYENPSPGNKAGGITTLEDKSLGCTQKAGSSVVVDVLRYGERLKTPGLNLLSAPGNDAVATSALAGAGCHMVLFSTGRGTPYGGFVPTVKIATNSELAAKKKHWIDFDAGQLIHGKAMPQLLEEFIDTIVEFANGKQTCNERNDFRELAIFKSGVTL	2.61 ± 0.27	3.9 ± 0.23	4.43 ± 0.69	4.17 ± 0.22	3.74 ± 0.76	6.84 ± 1.4	3.03 ± 0.15	2.65 ± 0.042	3.4	2.51 ± 0.36	2.63 ± 0.13	3.94 ± 1.4
MGSDAKNLMSDGNVQIVKTGEVIGATQLTEGELIVEAGGRAENTVVTGAGWLKVATGGIAKCTQYGNNGTLSVSDGAIATDIVQSEGGAISLSTLATVNGRHPEGEFSVDKGYACGLLLENGGNLRVLEGHRAEKIILDQEGGLLVNGTTSAVVVDEGGELLVYPGGEASNCEINQGGVFMLAGKASDTLLAGGTMNNLGGEDSDTIVENGSIYRLGTDGLQLYSSGKTQNLSVNVGGRAEVHAGTLENAVIQGGTVILLSPTSADENFVVEEDRAPVELTGSVALLDGASMIIGYGAELQQSTITVQQGGVLILDGSTVKGDSVTFIVGNINLNGGKLWLITDAATHVQLKVKRLRGEGAICLQTSAKEISPDFINVKGEVTGDIHVEITDASRQTLCNALKLQPDEDGIGATLQPA	1.15 ± 0.029	1.56 ± 0.18	2.44 ± 0.65	4.99 ± 0.55	1.32 ± 0.13	3.47 ± 1.2	4.73 ± 0.33	0.86 ± 0.11	1.12 ± 0.029	0.827 ± 0.0095	1.07 ± 0.041	1.73 ± 0.34
MKTLATIGDNCVDIYPQLNKAFSGGNAVNVAVYCTRYGIQPGCITWVGDDDYGTKLKQDLARMGVDISHVHTKHGVTAQTQVELHDNDRVFGDYTEGVMADFALSEEDYAWLAQYDIVHAAIWGHAEDAFPQLHAAGKLTAFDFSDKWDSPLWQTLVPHLDFAFASAPQEDETLRLKMKAIVARGAGTVIVTLGENGSIAWDGAQFWRQAPEPVTVIDTMGAGDSFIAGFLCGWSAGMTLPQAIAQGTACAAKTIQYHGAW	1.68	3.27	7.21 ± 0.47	5.37			3.97	4.2 ± 0.26	> 8	3.48		
MSFDPTGYTLAHEHLHIDLSGFKNNVDCRLDQYAFICQEMNDLMTRGVRNVIEMTNRYMGRNAQFMLDVMRETGINVVACTGYYQDAFFPEHVATRSVQELAQEMVDEIEQGIDGTELKAGIIAEIGTSEGKITPLEEKVFIAAALAHNQTGRPISTHTSFSTMGLEQLALLQAHGVDLSRVTVGHCDLKDNLDNILKMIDLGAYVQFDTIGKNSYYPDEKRIAMLHALRDRGLLNRVMLSMDITRRSHLKANGGYGYDYLLTTFIPQLRQSGFSQADVDVMLRENPSQFFQ			9.94	4.42		15.1			6.12	3.08 ± 0.51	4.97	
MKRLLILTALLPFVGFAQPINTLNNPNQPGYQIPSQQRMQTQMQTQQIQQKGMLNQQLKTQTQLQQQHLENQINNNSQRVLQSQPGERNPARQQMLPNTNGGMLNSNRNPDSSLNQQHMLPERRNGDMLNQPSTPQPDIPLKTIGP [P0ADX7]				5.56	7.44				4.65	3.81		
MAKEDNIEMQGTVLETLPNTMFRVELENGHVVTAHISGKMRKNYIRILTGDKVTVELTPYDLSKGRIVFRSR		5.34 ± 0.62	8.41 ± 0.61	5.28 ± 0.3	8.98 ± 0.12	9.85 ± 0.75	4.92 ± 1.1	4.49 ± 0.57	4.94 ± 0.23	5.4 ± 0.28	4.58	4.93 ± 1.6
MNMEEIVALSVKHNVSDLHLCSAWPARWRIRGRMEAAPFDTPDVEELLREWLDDDQRAILLENGQLDFAVSLAENQRLRGSAFAQRHGISLALRLLPSHCPQLEQLGAPTVLPELLKSENGLILVTGATGSGKSTTLAAMVGYLNQHADAHILTLEDPVEYLYASQRCLIQQREIGLHCMTFASGLRAALREDPDVILLGELRDSETIRLALTAAETGHLVLATLHTRGAAQAVERLVDSFPAQEKDPVRNQLAGSLRAVLSQKLEVDKQEGRVALFELLINTPAVGNLIREGKTHQLPHVIQTGQQVGMITFQQSYQHRVGEGRL				5.68 ± 0.4								
